Laboratory results from patent US20260049138A1 (Chugai, published 2026).

B1: CE115HA000 D101I one-arm antibody (antibody, human IgG1, kappa, L234A L235A, N297A, name in Kabat numbering)
heavy: QVQLVESGGGVVQPGRSLRLSCAASGFTFSNAWMHWVRQAPGKGLEWVAQIKAKSNNYATYYAESVKGRFTISRDDSKNSLYLQMNSLKTEDTAVYYCRYVHYGAYYGVIAWGQGTTVTVSSASTKGPSVFPLAPSSKSTSGGTAALGCLVKDYFPEPVTVSWNSGALTSGVHTFPAVLQSSGLYSLSSVVTVPSSSLGTQTYICNVNHKPSNTKVDKKVEPKSCDKTHTCPPCPAPEAAGGPSVFLFPPKPKDTLMISRTPEVTCVVVDVSHEDPEVKFNWYVDGVEVHNAKTKPREEQYASTYRVVSVLTVLHQDWLNGKEYKCKVSNKALPAPIEKTISKAKGQPREPQVYTLPPSRCELTKNQVSLSCAVKGFYPSDIAVEWESNGQPENNYKTTPPVLDSDGSFFLVSKLTVDKSRWQQGNVFSCSVMHEALHNHYTQKSLSLSPDYKDDDDK
chain: EPKSSDKTHTCPPCPAPELLGGPSVFLFPPKPKDTLMISRTPEVTCVVVDVSHEDPEVKFNWYVDGVEVHNAKTKPREEQYNSTYRVVSVLTVLHQDWLNGKEYKCKVSNKALPAPIEKTISKAKGQPREPQVCTLPPSRDELTKNQVSLWCLVKGFYPSDIAVEWESNGQPENNYKTTPPVLDSDGSFFLYSKLTVDKSRWQQGNVFSCSVMHEALHNRYTQKSLSLSP
light: DIVMTQSPLSLPVTPGEPASISCRSSQSLVHSNRNTYLHWYQQKPGQAPRLLIYKVSNRFSGVPDRFSGSGSGTDFTLKISRVEAEDVGVYYCGQGTQVPYTFGQGTKLEIKRTVAAPSVFIFPPSDEQLKSGTASVVCLLNNFYPREAKVQWKVDNALQSGNSQESVTEQDSKDSTYSLSSTLTLSKADYEKHKVYACEVTHQGLSSPVTKSFNRGEC
B2: CE115HA000 D101N one-arm antibody (antibody, human IgG1, kappa, L234A L235A, N297A, name in Kabat numbering)
heavy: QVQLVESGGGVVQPGRSLRLSCAASGFTFSNAWMHWVRQAPGKGLEWVAQIKAKSNNYATYYAESVKGRFTISRDDSKNSLYLQMNSLKTEDTAVYYCRYVHYGAYYGVNAWGQGTTVTVSSASTKGPSVFPLAPSSKSTSGGTAALGCLVKDYFPEPVTVSWNSGALTSGVHTFPAVLQSSGLYSLSSVVTVPSSSLGTQTYICNVNHKPSNTKVDKKVEPKSCDKTHTCPPCPAPEAAGGPSVFLFPPKPKDTLMISRTPEVTCVVVDVSHEDPEVKFNWYVDGVEVHNAKTKPREEQYASTYRVVSVLTVLHQDWLNGKEYKCKVSNKALPAPIEKTISKAKGQPREPQVYTLPPSRCELTKNQVSLSCAVKGFYPSDIAVEWESNGQPENNYKTTPPVLDSDGSFFLVSKLTVDKSRWQQGNVFSCSVMHEALHNHYTQKSLSLSPDYKDDDDK
chain: EPKSSDKTHTCPPCPAPELLGGPSVFLFPPKPKDTLMISRTPEVTCVVVDVSHEDPEVKFNWYVDGVEVHNAKTKPREEQYNSTYRVVSVLTVLHQDWLNGKEYKCKVSNKALPAPIEKTISKAKGQPREPQVCTLPPSRDELTKNQVSLWCLVKGFYPSDIAVEWESNGQPENNYKTTPPVLDSDGSFFLYSKLTVDKSRWQQGNVFSCSVMHEALHNRYTQKSLSLSP
light: DIVMTQSPLSLPVTPGEPASISCRSSQSLVHSNRNTYLHWYQQKPGQAPRLLIYKVSNRFSGVPDRFSGSGSGTDFTLKISRVEAEDVGVYYCGQGTQVPYTFGQGTKLEIKRTVAAPSVFIFPPSDEQLKSGTASVVCLLNNFYPREAKVQWKVDNALQSGNSQESVTEQDSKDSTYSLSSTLTLSKADYEKHKVYACEVTHQGLSSPVTKSFNRGEC
B3: CE115HA000 D101K one-arm antibody (antibody, human IgG1, kappa, L234A L235A, N297A, name in Kabat numbering)
heavy: QVQLVESGGGVVQPGRSLRLSCAASGFTFSNAWMHWVRQAPGKGLEWVAQIKAKSNNYATYYAESVKGRFTISRDDSKNSLYLQMNSLKTEDTAVYYCRYVHYGAYYGVKAWGQGTTVTVSSASTKGPSVFPLAPSSKSTSGGTAALGCLVKDYFPEPVTVSWNSGALTSGVHTFPAVLQSSGLYSLSSVVTVPSSSLGTQTYICNVNHKPSNTKVDKKVEPKSCDKTHTCPPCPAPEAAGGPSVFLFPPKPKDTLMISRTPEVTCVVVDVSHEDPEVKFNWYVDGVEVHNAKTKPREEQYASTYRVVSVLTVLHQDWLNGKEYKCKVSNKALPAPIEKTISKAKGQPREPQVYTLPPSRCELTKNQVSLSCAVKGFYPSDIAVEWESNGQPENNYKTTPPVLDSDGSFFLVSKLTVDKSRWQQGNVFSCSVMHEALHNHYTQKSLSLSPDYKDDDDK
chain: EPKSSDKTHTCPPCPAPELLGGPSVFLFPPKPKDTLMISRTPEVTCVVVDVSHEDPEVKFNWYVDGVEVHNAKTKPREEQYNSTYRVVSVLTVLHQDWLNGKEYKCKVSNKALPAPIEKTISKAKGQPREPQVCTLPPSRDELTKNQVSLWCLVKGFYPSDIAVEWESNGQPENNYKTTPPVLDSDGSFFLYSKLTVDKSRWQQGNVFSCSVMHEALHNRYTQKSLSLSP
light: DIVMTQSPLSLPVTPGEPASISCRSSQSLVHSNRNTYLHWYQQKPGQAPRLLIYKVSNRFSGVPDRFSGSGSGTDFTLKISRVEAEDVGVYYCGQGTQVPYTFGQGTKLEIKRTVAAPSVFIFPPSDEQLKSGTASVVCLLNNFYPREAKVQWKVDNALQSGNSQESVTEQDSKDSTYSLSSTLTLSKADYEKHKVYACEVTHQGLSSPVTKSFNRGEC
B4: CE115HA000 D101P one-arm antibody (antibody, human IgG1, kappa, L234A L235A, N297A, name in Kabat numbering)
heavy: QVQLVESGGGVVQPGRSLRLSCAASGFTFSNAWMHWVRQAPGKGLEWVAQIKAKSNNYATYYAESVKGRFTISRDDSKNSLYLQMNSLKTEDTAVYYCRYVHYGAYYGVPAWGQGTTVTVSSASTKGPSVFPLAPSSKSTSGGTAALGCLVKDYFPEPVTVSWNSGALTSGVHTFPAVLQSSGLYSLSSVVTVPSSSLGTQTYICNVNHKPSNTKVDKKVEPKSCDKTHTCPPCPAPEAAGGPSVFLFPPKPKDTLMISRTPEVTCVVVDVSHEDPEVKFNWYVDGVEVHNAKTKPREEQYASTYRVVSVLTVLHQDWLNGKEYKCKVSNKALPAPIEKTISKAKGQPREPQVYTLPPSRCELTKNQVSLSCAVKGFYPSDIAVEWESNGQPENNYKTTPPVLDSDGSFFLVSKLTVDKSRWQQGNVFSCSVMHEALHNHYTQKSLSLSPDYKDDDDK
chain: EPKSSDKTHTCPPCPAPELLGGPSVFLFPPKPKDTLMISRTPEVTCVVVDVSHEDPEVKFNWYVDGVEVHNAKTKPREEQYNSTYRVVSVLTVLHQDWLNGKEYKCKVSNKALPAPIEKTISKAKGQPREPQVCTLPPSRDELTKNQVSLWCLVKGFYPSDIAVEWESNGQPENNYKTTPPVLDSDGSFFLYSKLTVDKSRWQQGNVFSCSVMHEALHNRYTQKSLSLSP
light: DIVMTQSPLSLPVTPGEPASISCRSSQSLVHSNRNTYLHWYQQKPGQAPRLLIYKVSNRFSGVPDRFSGSGSGTDFTLKISRVEAEDVGVYYCGQGTQVPYTFGQGTKLEIKRTVAAPSVFIFPPSDEQLKSGTASVVCLLNNFYPREAKVQWKVDNALQSGNSQESVTEQDSKDSTYSLSSTLTLSKADYEKHKVYACEVTHQGLSSPVTKSFNRGEC
B5: CE115HA000 D101L one-arm antibody (antibody, human IgG1, kappa, L234A L235A, N297A, name in Kabat numbering)
heavy: QVQLVESGGGVVQPGRSLRLSCAASGFTFSNAWMHWVRQAPGKGLEWVAQIKAKSNNYATYYAESVKGRFTISRDDSKNSLYLQMNSLKTEDTAVYYCRYVHYGAYYGVLAWGQGTTVTVSSASTKGPSVFPLAPSSKSTSGGTAALGCLVKDYFPEPVTVSWNSGALTSGVHTFPAVLQSSGLYSLSSVVTVPSSSLGTQTYICNVNHKPSNTKVDKKVEPKSCDKTHTCPPCPAPEAAGGPSVFLFPPKPKDTLMISRTPEVTCVVVDVSHEDPEVKFNWYVDGVEVHNAKTKPREEQYASTYRVVSVLTVLHQDWLNGKEYKCKVSNKALPAPIEKTISKAKGQPREPQVYTLPPSRCELTKNQVSLSCAVKGFYPSDIAVEWESNGQPENNYKTTPPVLDSDGSFFLVSKLTVDKSRWQQGNVFSCSVMHEALHNHYTQKSLSLSPDYKDDDDK
chain: EPKSSDKTHTCPPCPAPELLGGPSVFLFPPKPKDTLMISRTPEVTCVVVDVSHEDPEVKFNWYVDGVEVHNAKTKPREEQYNSTYRVVSVLTVLHQDWLNGKEYKCKVSNKALPAPIEKTISKAKGQPREPQVCTLPPSRDELTKNQVSLWCLVKGFYPSDIAVEWESNGQPENNYKTTPPVLDSDGSFFLYSKLTVDKSRWQQGNVFSCSVMHEALHNRYTQKSLSLSP
light: DIVMTQSPLSLPVTPGEPASISCRSSQSLVHSNRNTYLHWYQQKPGQAPRLLIYKVSNRFSGVPDRFSGSGSGTDFTLKISRVEAEDVGVYYCGQGTQVPYTFGQGTKLEIKRTVAAPSVFIFPPSDEQLKSGTASVVCLLNNFYPREAKVQWKVDNALQSGNSQESVTEQDSKDSTYSLSSTLTLSKADYEKHKVYACEVTHQGLSSPVTKSFNRGEC
B6: CE115HA000 D101M one-arm antibody (antibody, human IgG1, kappa, L234A L235A, N297A, name in Kabat numbering)
heavy: QVQLVESGGGVVQPGRSLRLSCAASGFTFSNAWMHWVRQAPGKGLEWVAQIKAKSNNYATYYAESVKGRFTISRDDSKNSLYLQMNSLKTEDTAVYYCRYVHYGAYYGVMAWGQGTTVTVSSASTKGPSVFPLAPSSKSTSGGTAALGCLVKDYFPEPVTVSWNSGALTSGVHTFPAVLQSSGLYSLSSVVTVPSSSLGTQTYICNVNHKPSNTKVDKKVEPKSCDKTHTCPPCPAPEAAGGPSVFLFPPKPKDTLMISRTPEVTCVVVDVSHEDPEVKFNWYVDGVEVHNAKTKPREEQYASTYRVVSVLTVLHQDWLNGKEYKCKVSNKALPAPIEKTISKAKGQPREPQVYTLPPSRCELTKNQVSLSCAVKGFYPSDIAVEWESNGQPENNYKTTPPVLDSDGSFFLVSKLTVDKSRWQQGNVFSCSVMHEALHNHYTQKSLSLSPDYKDDDDK
chain: EPKSSDKTHTCPPCPAPELLGGPSVFLFPPKPKDTLMISRTPEVTCVVVDVSHEDPEVKFNWYVDGVEVHNAKTKPREEQYNSTYRVVSVLTVLHQDWLNGKEYKCKVSNKALPAPIEKTISKAKGQPREPQVCTLPPSRDELTKNQVSLWCLVKGFYPSDIAVEWESNGQPENNYKTTPPVLDSDGSFFLYSKLTVDKSRWQQGNVFSCSVMHEALHNRYTQKSLSLSP
light: DIVMTQSPLSLPVTPGEPASISCRSSQSLVHSNRNTYLHWYQQKPGQAPRLLIYKVSNRFSGVPDRFSGSGSGTDFTLKISRVEAEDVGVYYCGQGTQVPYTFGQGTKLEIKRTVAAPSVFIFPPSDEQLKSGTASVVCLLNNFYPREAKVQWKVDNALQSGNSQESVTEQDSKDSTYSLSSTLTLSKADYEKHKVYACEVTHQGLSSPVTKSFNRGEC

Target: T1, CD3ε homodimer protein (human, UniProt P07766 23-126, limits assumed, sulfo-tag or biotin label in the ECL assays; amine-coupled to the chip in SPR)
T1 construct: also called human CD3ε homodimer protein; CD3 (CD3ε)
T1 sequence (P07766 23-126 limits assumed): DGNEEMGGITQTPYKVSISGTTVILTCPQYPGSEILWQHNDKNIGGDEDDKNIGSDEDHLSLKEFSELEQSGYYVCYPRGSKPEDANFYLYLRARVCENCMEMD
Test: SPR Biacore T200; CD3ε homodimer on CM4 chip;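 also: Single-residue variant antibodies injected as analyte over CD3ε homodimer immobilized by amine coupling, run at 25 °C in HBS-EP+ buffer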
Procedure: An appropriate amount of CD3ε homodimer protein was immobilized onto Sensor chip CM4 (GE Healthcare Japan Corp.) by the amine coupling method. Then, the antibody having an appropriate concentration was injected thereto as an analyte and allowed to interact with the CD3ε homodimer protein on the sensor chip. Then, the sensor chip was regenerated by the injection of 10 mmol/L glycine-HCl (pH 1.5). The assay was conducted at 25° C., and HBS-EP+ (GE Healthcare Japan Corp.) was used as a running buffer. […] Each parameter was calculated using Biacore T200 Evaluation Software (GE Healthcare Japan Corp.).

Row | Binder | ratio of amounts bound Z=Y/X (altered form / CE115HA000)
1 | B1 | 1.18
2 | B2 | 2.02
3 | B3 | 0.63
4 | B4 | 0.2
5 | B5 | 0.62
6 | B6 | 1.2
